According to patent US20250277057A1 (OKLAHOMA MEDICAL RESEARCH FOUNDATION, published 2025):
Numbering of substitutions follows the chain as printed. Names may count otherwise.

B1: HAPC-14-1 (antibody, V domains shown)
VH: EVQLVESGGGLVQPGGSLRLSCAASGFTFSFYYLNWVRQAPGKGLEWVGDIRLKSNNYEKHYAESVKGRFTISRDDSKSITYLQMNSLRAEDTAVYYCAREGDYFDYWGQGTTVTVSS
VL: DIQLTQSPSSLSASVGDRVTITCRASESVDSFGATFMHWYQQKPGKAPKLLIYLASWLGSGVPSRFSGSGSGTDFTLTISSLQPEDFATYYCQQNNEDPYTFGQGTKLEIK
notes: Whole IgG, backbone hIgG1; also called HPAC14-1
B2: HAPC-14-5 (antibody, V domains shown)
VH: B1 VH with S55K
VL: B1 VL with Q93V
notes: Whole IgG, backbone hIgG1; also called HPAC 14-5
B3: HAPC-14-8 (antibody, V domains shown)
VH: B1 VH with S55K, Y104T
VL: B1 VL with W57R, Q93V
notes: Whole IgG, backbone hIgG1; also called HPAC 14-8
B4: HAPC-14-4 (antibody, V domains shown)
VH: B1 VH
VL: B1 VL with W57R, Q93V
notes: Whole IgG, backbone hIgG1; also called HPAC 14-4
B5: HAPC-14-2 (antibody, V domains shown)
VH: B1 VH with S55K
VL: B1 VL with G59E, Q93V
notes: Whole IgG, backbone hIgG1; also called HPAC 14-2
B6: HAPC-14-R1-1H1-F2 (Fab, V domains shown)
VH: B1 VH
VL: B1 VL with W57N, G59E
notes: Single-site mutant Fab of HAPC-14 in periplasmic extract
B7: HAPC-14-R1-2L6-G1 (Fab, V domains shown)
VH: B1 VH with F31N
VL: B1 VL with W57N
notes: Single-site mutant Fab of HAPC-14
B8: HAPC-14-R1-2L6-F2 (Fab, V domains shown)
VH: B1 VH with F31N
VL: B1 VL with W57N, G59K
notes: Single-site mutant Fab of HAPC-14; inferred from the clone name (2L6, same site as E59G/P)
B9: HAPC-14-R1-2L4-G9 (Fab, V domains shown)
VH: B1 VH with F31N
VL: B1 VL with W57K, G59E
notes: Single-site mutant Fab of HAPC-14; inferred from the clone name (2L4, same site as N57R/W)
B10: HAPC-14-R1-3L1-D11 (Fab, V domains shown)
VH: B1 VH with F31N
VL: B1 VL with W57N, G59E, Q93W
notes: Single-site mutant Fab of HAPC-14; inferred from the clone name (3L1, same site as Q93V)
B11: HAPC-14-R1-3H4-C6 (Fab, V domains shown)
VH: B1 VH with F31N, Y104T
VL: B1 VL with W57N, G59E
notes: as for B7
B12: HAPC-14-R1-2L4-B2 (Fab, V domains shown)
VH: B1 VH with F31N
VL: B1 VL with G59E
notes: as for B7
B13: HAPC-14-R1-1L7-B9 (Fab, V domains shown)
VH: B1 VH with F31N
VL: B1 VL with D30A, W57N, G59E
notes: Single-site mutant Fab of HAPC-14; inferred from the clone name (1L7 = VL CDR1, 7th residue, the only D of that CDR)
B14: HAPC-14-R1-3H7-F2 (Fab, V domains shown)
VH: B1 VH with F31N, Y107P
VL: B1 VL with W57N, G59E
notes: Single-site mutant Fab of HAPC-14; inferred from the clone name (3H7 = VH CDR3, 7th residue)
B15: HAPC-14-R1-3H4-C5 (Fab, V domains shown)
VH: B1 VH with F31N, Y104S
VL: B1 VL with W57N, G59E
notes: Single-site mutant Fab of HAPC-14; inferred from the clone name (3H4 = VH CDR3, 4th residue, same site as Y104T)
B16: HAPC-14-R1-2L4-D4 (Fab, V domains shown)
VH: B1 VH with F31N
VL: B1 VL with W57R, G59E
notes: as for B7
B17: HAPC-14-R1-3L1-G8 (Fab, V domains shown)
VH: B1 VH with F31N
VL: B1 VL with W57N, G59E, Q93V
notes: as for B7
B18: HAPC-14-R1-2H6-C2 (Fab, V domains shown)
VH: B1 VH with F31N, S55K
VL: B1 VL with W57N, G59E
notes: as for B7
B19: HAPC-14-R1-2L4-A1 (Fab, V domains shown)
VH: B1 VH with F31N
VL: B1 VL with W57L, G59E
notes: as for B9

Molecular target: T1, human activated protein C (human, UniProt P04070 43-197; P04070 212-461)
T1 construct: In the plasma assays aPC is generated in human plasma with Protac; also called aPC; haPC
Experiment: ELISA, plate coated with haPC 1 ug/mL, anti-hIgG-Fc-HRP
Procedure: (§1) The binding abilities of the anti-aPC monoclonal antibodies to haPC/hPC were assayed by Elisa. […] 1. ELISA plates were coated with haPC/hPC (1 ug/mL in PBS), 100 μL/well, at 4° C. overnight. […] 2. The plates were washed 3 times with PBST (0.1% Tween 20), 200 μL/well. […] 3. The plates were blocked with 2% BSA (PBS solution), 200 μL/well, at room temperature for 1 hour. […] 4. The plates were washed 3 times with PBST (0.1% Tween 20), 200 μL/well. […] 5. The plates were incubated with anti-aPC monoclonal antibody as primary antibody (diluted from 10 μg/mL in 2% BSA), 100 μL/well, at room temperature for 1 hour. […] 6. The plates were washed 3 times with PBST (0.1% Tween 20), 200 μL/well. [0200] 7. The plates were incubated with anti-hIgG-Fc antibody-HRP (diluted 5000-fold in 2% BSA buffer) at room temperature for 1 hour. [0201] 8. The plates were washed 6 times with PBST (0.1% Tween 20), 200 μL/well. [0202] 9. The plates were incubated with a TMB substrate (prepared from solutions A and B at 1:1 (v/v)), 100 μL/well, away from light for 10 minutes. […] 10. The reaction was quenched with HCl (1 M), 100 μL/well, and OD450 was read.

EC50 [nM] | Span | Binder
0.114 | 2.11 | B1
0.0924 | 1.63 | B2
0.138 | 1.05 | B3
0.0605 | 1.52 | B4
0.111 | 1.77 | B5

Molecular target: T1, human activated protein C
Experiment: direct antigen coating ELISA (KD ELISA) of Fab periplasmic extract, anti-c-myc HRP
Procedure: Each well of 96-well plates was coated with an anti-Fab antibody in a coating buffer PBS with pH 7.4 at 4° C. The next day, the plates were blocked with casein in PBS with pH 7.4 at 25° C. for 1 hour. Then, Fab PE was added to the plates, and incubated at 25° C. for 1 hour. After the plates were washed, biotinylated antigen was added to the wells and incubated at 25° C. for 1 hour. Then, the biotinylated antigen was incubated with an SA-horseradish peroxidase (HRP) conjugate at 25° C. for 1 hour. HRP activity was detected with a tetramethylbenzidine (TMB) substrate, and the reaction was quenched with 2M HCl. The plates were read at 450 nm. […] The binding-improved mutants with unique sequences of HAPC-14 were ranked by direct antigen coating ELISA.
Each well of 96-well plates was coated with hPro1. biotin in 1×PBS buffer with pH 7.4, and incubation was carried out overnight at 4° C. The next day, the plates were blocked with casein in 1×PBS buffer with pH 7.4 at 25° C. for 1 hour. Fab PE of each mutant diluted according to one concentration was added to the plates and incubated at 25° C. for 1 hour. Then the Fab PE was incubated with goat anti-c-myc HRP conjugated at 25° C. for 1 hour. HRP activity was detected with a tetramethylbenzidine (TMB) substrate, and the reaction was quenched with 2M HCl. OD values of each plate were read at 450 nm.

Bmax | Binder
0.278 | B6
0.492 | B7
0.299 | B8
0.287 | B9
0.261 | B10
0.325 | B11
0.662 | B12
0.151 | B13
0.193 | B14
0.328 | B15
0.567 | B16
0.24 | B17
0.262 | B18
0.244 | B19

Molecular target: T1, human activated protein C
Experiment: cell-based or functional assay

Mean clotting time (s), FIX-deficient plasma, APC-antibody concentration 0.5 ug/ml [s] | Mean clotting time (s), FIX-deficient plasma, APC-antibody concentration 1 ug/ml [s] | Mean clotting time (s), FIX-deficient plasma, APC-antibody concentration 5 ug/ml [s] | Mean clotting time (s), FVIII-deficient plasma, APC-antibody concentration 0.5 ug/ml [s] | Mean clotting time (s), FVIII-deficient plasma, APC-antibody concentration 1 ug/ml [s] | Mean clotting time (s), FVIII-deficient plasma, APC-antibody concentration 5 ug/ml [s] | Mean clotting time (s), FIX-deficient plasma, APC-antibody concentration 0.05 ug/ml [s] | Mean clotting time (s), FIX-deficient plasma, APC-antibody concentration 0.1 ug/ml [s] | Mean clotting time (s), FVIII-deficient plasma, APC-antibody concentration 0.05 ug/ml [s] | Mean clotting time (s), FVIII-deficient plasma, APC-antibody concentration 0.1 ug/ml [s] | Binder
219 | 195 | 171 | 327 | 222 | 166 | – | – | – | – | B1
197 | 188 | 166 | 224 | 200 | 171 | – | – | – | – | B2
276 | – | – | 190 | – | – | 732 | 392 | 316 | 252 | B3
220 | 194 | 176 | 221 | 184 | 158 | – | – | – | – | B4
233 | 211 | 143 | 358 | 196 | 159 | – | – | – | – | B5

Molecular target: T2, human protein C (human, UniProt P04070 43-461)
T2 construct: Zymogen form, coated on ELISA plates; also called hPC; PC
Experiment: ELISA, plate coated with hPC 1 ug/mL, anti-hIgG-Fc-HRP
Procedure: as §1

Span | Binder
0.023 | B1
~0.0475 | B2
-0.00465 | B3
0.157 | B4
0.0104 | B5

Molecular target: T2, human protein C
Experiment: ELISA on plate-coated HPC, OD450
Procedure: as §1

binding result | Binder
no binding (tested: 10^2 nM) | B1
no binding (tested: 10^2 nM) | B2
no binding (tested: 10^2 nM) | B4
no binding (tested: 10^2 nM) | B5

Molecular target: T1, human activated protein C
Experiment: Octet BLI, antibody on Protein A sensor, huAPC 3.13-50 nM, 1:1 model, 25 C, pH 7.4
Procedure: Assay method: Octet analysis was carried out at 25° C. using a Protein A Octet biosensor in 1× Kinetics buffer. During the kinetics assay, the baseline step assay was run in 1× Kinetics buffer for 120 seconds, and then run for 240 seconds after the antibody was loaded to the biosensor. Next, the baseline 2 step assay was run in 1× Kinetics buffer for 120 seconds. […] The 1× Kinetics buffer was used as a blank control to show the natural dissociation of the antibody in the buffer. 10 mM glycine at pH 1.5 was used for the regeneration step. Octet data analysis software was used to calculate binding kinetics, and a 1:1 binding model was used for curve fitting.
The affinities of the mutant antibodies were assayed at pH 7.4.

Kd [nM] | koff [s⁻¹] | kon [M⁻¹ s⁻¹] | Binder
3.83 | 0.00117 | 306000 | B1
2.83 | 0.000911 | 322000 | B2
10.5 | 0.00262 | 250000 | B3
4.06 | 0.00126 | 310000 | B4
3.78 | 0.00116 | 307000 | B5
